# Measured values taken from the DeepSol protein solubility set.
# Experiment: soluble on expression in E. coli; label from the status in PepcDB or PDB records
row,Sequence,soluble on expression in E. coli
1,MKQDVILVLDCGATNVRAIAVDRQGKIVARASTANASDIAAENSAWHQWSLDAILQRFADCCRSLSSALSECVVRGITVTTFGVDGALVDAQGKLLYPVISWKCPRTAAVMETIERFISPRQLQTLSGVGAFSFNTLYKLVWLKENHPRLLEQAHCWLFISSLINHRLTGEFTTDITMAGTSQLLDIHQRDFSPEILQATGLARRLFPRIVEAGAPIGTLQTDAARLLGLPAGVPVISAGHDTQFALFGAGAQQGEPVLSSGTWEILMVRSGQVDTSLLSQYPGSTCELDSQSGLYNPGMQWLASGVLEWVRKLLWTPETPWQTLIDEARAIPAGAEGVRMQCDLLACQNAGWQGVTLNTTRGHFYRAALEGLTAQLQRNLRTLEKIGHFNATELLLVGGGSRNALWNQIKANQLDIPIKVLDDAETTVAGAAMFGWYGVGEFSSPEQARAQVNYQYRYFWPQTEPEIIEGV,not soluble
2,MKQEFSSIQFKAALLAAGLVLQVPAHANDGTIVITGAITDTTCIIEDPSDPNHTKVVQLPKISKSALKVKGDQAGRTPFTISLRDCPADLGNGVKVYFEPGPTTNYATGDLKAYKLAYATNPKATPLNSIVAATPATGVEIRISNLDDSKIPMGVDVTNQRAQGFNPVEQTGDTNKRTVTMRYLASYVKADGDIQASAITTYVGFSVVYP,not soluble
3,MKQFSGLSRTIQGNHLLDTCAIDILKIGHRPLVLCAKQEYNTTVESFVKVLTCHGLIVKIVYMEEWDQNSVEECGEVGFRHRADHIIGIGNSSVAACTKAVADLLDLPAVLIPTSPFTTLPWVSVENKKRERPLFNESIQLIIADREQLLTQPTSELINGVVNTLLYLAAIKEVKRNHLFSLVDDILIRSFESVLLRGSLQAIEDFEARILSKEVQDVLEVLSTCVTLDLPSDAWDVIQQIESKLSERREDLVDEPLKRNVVLYLLLSYLTQESEEFQARLKWCQQLLLSANSSNLLSLEAVLKEIALEMGEDGSTRC,soluble
4,MKQHQSADNSQGQLYIVPTPIGNLADITQRALEVLQAVDLIAAEDTRHTGLLLQHFGINARLFALHDHNEQQKAETLLAKLQEGQNIALVSDAGTPLINDPGYHLVRTCREAGIRVVPLPGPCAAITALSAAGLPSDRFCYEGFLPAKSKGRRDALKAIEAEPRTLIFYESTHRLLDSLEDIVAVLGESRYVVLARELTKTWETIHGAPVGELLAWVKEDENRRKGEMVLIVEGHKAQEEDLPADALRTLALLQAELPLKKAAALAAEIHGVKKNALYKYALEQQG,soluble
5,MKQIFIGIIRFYQKFISPMTPPTCRFYPTCSHYGLEAFQKHGALKGFWLTCKRILKCHPFHPGGFDPVPDKKDDKVNSLEHHHHHH,not soluble
6,MKQLTLAKTVKGVGIGLHKGEPIEITLEPLEANSGIVFFRSDLNASYKASPENVINTQMATVLGDDRGFISTIEHLMSAINAYGIDNVRIVLNANEAPVMDGSSISFCMMLDEAGVKELDAPKKIMVIKKPIEVRDGNKFVRLTPTKEPRINYTIKFDNAVIGEQSYNFEFSKKNYIENIARARTFGFLKDVQALRSMNLALGGSLENTIVVDENRILNPEGLRFKDEFVRHKILDAIGDLTLLGYRVFGDYTSYAGSHHLNHLLTKEVLKDKDAYEIVSLEKTTQKAYEKVFALEHHHHHH,soluble
7,MKQLYGVIGNPIGHSLSPVMHNDAFEHLKMDAHYHAFLVKEEVLGEAVRGLKALGISGFNVTTPHKVAIMDYLDEIDPLAKQIGAVNTVVHKDGKLIGYNTDGIGFVRALQSISSEPLQEKRILLLGAGGASRAIYFSLADAGVKEIDVANRTVDKAKELIAACTATVHSVALSLEKATKEQGNYDIIIQTTTIGMHPRVEHTPLQISSLKKGTIVSDIIYNPFETKILCEAKEQGAIIQNGIDMFVYQGALAFEMWTGCVPNIERMKQLVIRNLEANIYVNRKTKKIFTCTSTSFNTNFSSRKRRSK,not soluble
8,MKQPGEELQETLTELDDRAVVDYLIKNPEFFIRNARAVEAIRVPHPVRGTVSLVEWHMARARNHIHVLEENMALLMEQAIANEGLFYRLLYLQRSLTAASSLDDMLMRFHRWARDLGLAGASLRLFPDRWRLGAPSNHTHLALSRQSFEPLRIQRLGQEQHYLGPLNGPELLVVLPEAKAVGSVAMSMLGSDADLGVVLFTSRDASHYQQGQGTQLLHEIALMLPELLERWIERV,not soluble
9,MKQSLFGRVRDAILADFHNVLDEKERKNPIAMLNQYLRDSEREITKIEKLIERHKTLKSNFARELEQARYFVNKRSKQAIIAQEADELQLHERALEEVAYYEGQVTRLEEMYAGVVEQIDELERRLSEMKNKLKEMHAKRMELMARENMAHANRRMNTAMHKMDENNPFLRFEEIEDHIRDLETRMNEEHERDTFDMKIAKLEREMKEKNDVSLTKELTKLEHHHHHH,soluble
10,MKQTQRHDAIIELVKKQGYVSTEELVEHFSVSPQTIRRDLNDLAEQNMILRHHGGAALPSSSVNTPWHDRKATQTEEKERIARKVAAQIPNGSTLFIDIGTTPEAVAHALLGHSNLRIVTNNLNVANTLMAKEDFRIILAGGELRSRDGGIIGEATQDFIAQFRLDFGILGISGIDSDGSLLEFDYHEVRTKRAIIENSRHVMLVVDHSKFGRNAMVNMGSISMVDAVYTDTLPPPGVMQVLTENHIQLELCLEHHHHHH,soluble
11,MKQTVAAYIAKTLESAGVKRIWGVTGDSLNGLSDSLNRMGTIEWMSTRHEEVAAFAAGAEAQLSGELAVCAGSCGPGNLHLINGLFDCHRNHVPVLAIAAHIPSSEIGSGYFQETHPQELFRECSHYCELVSSPEQIPQVLAIAMRKAVLNRGVSVVVLPGDVALKPAPEGATMHWYHAPQPVVTPEEEELRKLAQLLRYSSNIALMCGSGCAGAHKELVEFAGKIKAPIVHALRGKEHVEYDNPYDVGMTGLIGFSSGFHTMMNADTLVLLGTQFPYRAFYPTDAKIIQIDINPASIGAHSKVDMALVGDIKSTLRALLPLVEEKADRKFLDKALEDYRDARKGLDDLAKPSEKAIHPQYLAQQISHFAADDAIFTCDVGTPTVWAARYLKMNGKRRLLGSFNHGSMANAMPQALGAQATEPERQVVAMCGDGGFSMLMGDFLSVVQMKLPVKIVVFNNSVLGFVAMEMKAGGYLTDGTELHDTNFARIAEACGITGIRVEKASEVDEALQRAFSIDGPVLVDVVVAKEELAIPPQIKLEQAKGFSLYMLRAIISGRGDEVIELAKTNWLR,soluble
12,MKQVCVLGNGQLGRMLRQAGEPLGIAVWPVGLDAEPAAVPFQQSVITAEIERWPETALTRQLARHPAFVNRDVFPIIADRLTQKQLFDKLHLPTAPWQLLAERSEWPAVFDRLGELAIVKRRTGGYDGRGQWRLRANETEQLPAECYGECIVEQGINFSGEVSLVGARGFDGSTVFYPLTHNLHQDGILRTSVAFPQANAQQQARAEEMLSAIMQELGYVGVMAMECFVTPQGLLINELAPRVHNSGHWTQNGASISQFELHLRAITDLPLPQPVVNNPSVMINLIGSDVNYDWLKLPLVHLHWYDKEVRPGRKVGHLNLTDSDTSRLTATLEALIPLLPPEYASGVIWAQSKFG,soluble
13,MKQWIAALLLMLIPGVQAAKPQKVTLMVDDVPVAQVLQALAEQEKLNLVVSPDVSGTVSLHLTDVPWKQALQTVVKSAGLITRQEGNILSVHSIAWQNDNIARQEAEQARAQANLPLENRSITLQYADAGELAKAGEKLLSAKGSMTVDKRTNRLLLRDNKTALSALEQWVAQMDLPVGQVELSAHIVTINEKSLRELGVKWTLADAQHAGGVGQVTTLGSDLSVATATTHVGFNIGRINGRLLDLELSALEQKQQLDIIASPRLLASHLQPASIKQESEIPYQVSSGESGATSVEFKEAVLGMEVTPTVLQKGRIRLKLHISQNVPGQVLQQADGEVLAIDKQEIETQVEVKSGETLALGGIFTRKNKSGQDSVPLLGDIPWFGQLFRHDGKEDERRELVVFITPRLVSSELEHHHHHH,not soluble
14,MKQYIPFIRKDPVVPVIRLQGVIASGPRGGLSDQGLAAVIEKAFRRGKPAGVALVINSPGGSPVQSSLIAARIRRLASEKGVRVHAFVEDVAASGGYWLACAGDEIWVDESSLVGSIGVIFSSFGFHEFMARNGIERRVHTAGRSKSLADPFLPEKPEDVERLKALQEPIHRAFIEYVKRHRGTRLDLNADLFNADVWTGQEAVRLGLADGVAHLVPKLQENYGDKVRLVPYGQRRPFLQRLGMSLAGQALAEVENRALWARYGLLEHHHHHH,not soluble
